Drawing on PMC5974087, “The RPAP3-Cterminal domain identifies R2TP-like quaternary chaperones” (Nature Communications, 2018), this text covers Kd, koff and kon for 1 molecule.

For this assay, the target named is T1, recombinant RUVBL1-RUVBL2 complex (His_RUVBL1_Flag_RUVBL2) (human, UniProt Q9Y265 1-456; Q9Y230 1-463).
T1 construct: Purified predominantly as a dodecamer; hetero-hexamers and hetero-dodecamers in native MS; the SPR fit counts one hexamer; The methods tell different things of the RUVBL2 tag (N-terminal FLAG with TEV site; 3xFLAG in the NMR methods); also called RUVBL1/2; RUVBL1/2 hetero-multimers; source: E. coli (DE3), co-expressed, purified (HisTrap, anti-Flag M2 gel, Superdex S200, Superose 6); not shown: …
T1 sequence (Q9Y265 whole entry, chain 1 of 2): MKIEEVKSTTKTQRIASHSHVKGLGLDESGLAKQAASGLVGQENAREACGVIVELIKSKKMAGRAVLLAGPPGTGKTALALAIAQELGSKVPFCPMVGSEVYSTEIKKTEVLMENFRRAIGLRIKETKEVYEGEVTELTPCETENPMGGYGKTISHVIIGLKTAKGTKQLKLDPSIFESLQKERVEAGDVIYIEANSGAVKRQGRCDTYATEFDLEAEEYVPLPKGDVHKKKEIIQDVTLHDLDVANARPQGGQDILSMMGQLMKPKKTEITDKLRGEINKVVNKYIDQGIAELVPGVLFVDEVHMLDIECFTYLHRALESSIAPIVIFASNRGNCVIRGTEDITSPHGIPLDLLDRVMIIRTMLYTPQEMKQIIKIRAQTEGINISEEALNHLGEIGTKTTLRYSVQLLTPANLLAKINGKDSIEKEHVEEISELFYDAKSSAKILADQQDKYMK
T1 sequence (Q9Y230 whole entry, chain 2 of 2): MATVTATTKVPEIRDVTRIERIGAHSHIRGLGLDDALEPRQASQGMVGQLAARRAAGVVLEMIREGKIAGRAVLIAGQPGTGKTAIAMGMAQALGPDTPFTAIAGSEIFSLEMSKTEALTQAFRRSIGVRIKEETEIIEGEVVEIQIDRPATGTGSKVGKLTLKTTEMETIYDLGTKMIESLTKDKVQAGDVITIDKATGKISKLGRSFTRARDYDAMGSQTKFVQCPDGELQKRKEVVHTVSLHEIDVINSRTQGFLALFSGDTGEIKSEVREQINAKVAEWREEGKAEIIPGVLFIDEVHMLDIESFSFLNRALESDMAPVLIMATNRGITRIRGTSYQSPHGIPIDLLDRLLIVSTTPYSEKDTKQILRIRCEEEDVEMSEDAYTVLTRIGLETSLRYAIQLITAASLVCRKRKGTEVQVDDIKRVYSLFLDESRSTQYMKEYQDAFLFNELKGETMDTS
As to the kind of experiment: SPR; RPAP3-Cter amine-coupled on CM5; RUVBL1-RUVBL2 complex injected, 10 concentrations up to 75.2 nM; 20 mM NaKPi pH 7.5, 150 mM NaCl, 5 mM MgCl2, 1 mM DTT, 0.05% P20; 25 °C; 1:1 Langmuir model counting one hexamer of RUVBL1/2; Biacore 4000. Particulars: both partners purified.

B1: RPAP3_(535-665), C-terminal domain of human RPAP3 (domain or fragment, UniProt Q9H6T3 535-665, looked up)
chain: AQFATTVLPPIPANSFQLESDFRQLKSSPDMLYQYLKQIEPSLYPKLFQKNLDPDVFNQIVKILHDFYIEKEKPLLIFEILQRLSELKRFDMAVMFMSETEKKIARALFNHIDKSGLKDSSVEELKKRYGG
modifications: 13C/15N isotope labelling in the NMR samples
notes: RPAP3, human, residues 535-665; numbering of isoform 1; Vector pnEA-3CH; also called RPAP3-Cter; RPAP3 C-terminal domain; source: E. coli (DE3) pRARE2, purified (TALON, HRV-3C cleavage, S75 size exclusion)
As usually defined, the Kd is the equilibrium constant for the complex coming apart. Usually koff stands for a measure of how fast the partners let go of each other. In general, kon refers to a measure of how fast the partners come together. For the molecule B1, the dissociation constant Kd amounted to 4.18 nM, the dissociation rate constant (koff) was determined as 0.00112 s⁻¹ and the kon was found to be 297000 M⁻¹ s⁻¹.
